Substitutions are numbered along the chain they refer to. Numbers in names are those of the source.
Molecular target: T1, PUF4 RNA-binding domain (Saccharomyces cerevisiae, UniProt P25339 537-888)
T1 sequence: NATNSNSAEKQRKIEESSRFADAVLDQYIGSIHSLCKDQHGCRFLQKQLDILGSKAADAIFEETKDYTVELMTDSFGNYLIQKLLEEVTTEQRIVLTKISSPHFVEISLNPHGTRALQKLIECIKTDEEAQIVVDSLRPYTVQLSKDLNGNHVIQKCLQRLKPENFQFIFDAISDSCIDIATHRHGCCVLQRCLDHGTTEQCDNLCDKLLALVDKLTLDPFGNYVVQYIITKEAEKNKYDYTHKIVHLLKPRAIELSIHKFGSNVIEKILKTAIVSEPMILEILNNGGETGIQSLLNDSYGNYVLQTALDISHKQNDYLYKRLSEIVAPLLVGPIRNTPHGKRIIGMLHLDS
Assay: Mg; RNA-MaP; 20 mM Na-HEPES pH 7.4, 30 mM KOAc, 0.75 mM MgCl2, 0.1% Tween-20, 5% glycerol, 0.1 mg/mL BSA, 2 mM DTT; 25 C; 0.0125-409.6 nM protein
Conditions: tags: N-His6-TEV cleaved; C-SNAP kept, Cy3B-labelled; label: tethered on chip by stalled RNA polymerase

B1: Id_ii_S4_P3E.4_K3.3_C3.2_[C-2T]_[T-1A]_H3.3_A3.1_F3.1_T3.2 (ssRNA)
RNA: UUUGACAACUGAUCGUUCUUUCUUAACACUAUAUAUUCUUUCUCGAUCAGUUGUCUUU
- Kd: 264 nM

B2: Id_ii_S4_P3E.4_K3.3_C3.2_[T-1C]_H3.3_A3.1_F3.1_T3.2_[A10T] (ssRNA)
RNA: B1 RNA with U24C, A25C, A35U
- Kd: 1050 nM

B3: Id_ii_S4_P3E.4_K3.3_C3.2_H3.3_A3.1_F3.1_T3.2_[T9C]_[A10T] (ssRNA)
RNA: B1 RNA with U24C, A25U, U34C, A35U
- Kd: 1380 nM

B4: Id_ii_S4_P3E.4_K3.3_C3.2_[C-2A]_H3.3_A3.1_F3.1_T3.2_[A10C] (ssRNA)
RNA: B1 RNA with U24A, A25U, A35C
- Kd: 41.8 nM

B5: Id_ii_S4_P3E.4_K3.3_C3.2_[C-2T]_H3.3_A3.1_F3.1_T3.2_[A10T] (ssRNA)
RNA: B1 RNA with A25U, A35U
- Kd: 946 nM

B6: Id_ii_S4_P3E.4_K3.3_C3.2_[C-2A]_[T-1A]_H3.3_A3.1_F3.1_T3.2_[A10C] (ssRNA)
RNA: B1 RNA with U24A, A35C
- Kd: 1020 nM

B7: Id_ii_S4_P3E.4_K3.3_C3.2_[C-2A]_H3.3_A3.1_F3.1_T3.2_[T9A]_[A10C] (ssRNA)
RNA: B1 RNA with U24A, A25U, U34A, A35C
- Kd: 26.4 nM

B8: Id_ii_S4_P3E.4_K3.3_C3.2_[C-2A]_[T-1C]_H3.3_A3.1_F3.1_T3.2_[A10T] (ssRNA)
RNA: B1 RNA with U24A, A25C, A35U
- Kd: 1140 nM

B9: Id_ii_S4_P3E.4_K3.3_C3.2_H3.3_A3.1_F3.1_T3.2_[T9C] (ssRNA)
RNA: B1 RNA with U24C, A25U, U34C
- Kd: 597 nM

B10: Id_ii_S4_P3E.4_K3.3_C3.2_[T-1G]_H3.3_A3.1_F3.1_T3.2_[T9C]_[A10T] (ssRNA)
RNA: B1 RNA with U24C, A25G, U34C, A35U
- Kd: > 2300 nM

B11: Id_ii_S4_P3E.4_K3.3_C3.2_[C-2A]_[T-1C]_H3.3_A3.1_F3.1_T3.2_[T9G]_[A10C] (ssRNA)
RNA: B1 RNA with U24A, A25C, U34G, A35C
- Kd: > 2300 nM

B12: Id_ii_S4_P3E.4_K3.3_C3.2_[C-2A]_[T-1C]_H3.3_A3.1_F3.1_T3.2_[T9A]_[A10C] (ssRNA)
RNA: B1 RNA with U24A, A25C, U34A, A35C
- Kd: 1370 nM

B13: Id_ii_S4_P3E.4_K3.3_C3.2_[C-2T]_H3.3_A3.1_F3.1_T3.2_[T9A] (ssRNA)
RNA: B1 RNA with A25U, U34A
- Kd: 2300 nM

B14: Id_ii_S4_P3E.4_K3.3_C3.2_[T-1C]_H3.3_A3.1_F3.1_T3.2_[T9G]_[A10C] (ssRNA)
RNA: B1 RNA with U24C, A25C, U34G, A35C
- Kd: > 2300 nM

B15: Id_ii_S4_P3E.4_K3.3_C3.2_[C-2A]_H3.3_A3.1_F3.1_T3.2_[A10T] (ssRNA)
RNA: B1 RNA with U24A, A25U, A35U
- Kd: 49.3 nM

B16: Id_ii_S4_P3E.4_K3.3_C3.2_[T-1A]_H3.3_A3.1_F3.1_T3.2 (ssRNA)
RNA: B1 RNA with U24C
- Kd: 291 nM

B17: Id_ii_S4_P3E.4_K3.3_C3.2_[T-1G]_H3.3_A3.1_F3.1_T3.2_[T9A] (ssRNA)
RNA: B1 RNA with U24C, A25G, U34A
- Kd: > 2300 nM

B18: Id_ii_S4_P3E.4_K3.3_C3.2_[T-1A]_H3.3_A3.1_F3.1_T3.2_[T9C]_[A10C] (ssRNA)
RNA: B1 RNA with U24C, U34C, A35C
- Kd: 2160 nM

B19: Id_ii_S4_P3E.4_K3.3_C3.2_[C-2T]_H3.3_A3.1_F3.1_T3.2_[T9G]_[A10C] (ssRNA)
RNA: B1 RNA with A25U, U34G, A35C
- Kd: 1230 nM

B20: Id_ii_S4_P3E.4_K3.3_C3.2_[C-2A]_[T-1A]_H3.3_A3.1_F3.1_T3.2_[T9C] (ssRNA)
RNA: B1 RNA with U24A, U34C
- Kd: 496 nM

B21: Id_ii_S4_P3E.4_K3.3_C3.2_[T-1G]_H3.3_A3.1_F3.1_T3.2_[T9C] (ssRNA)
RNA: B1 RNA with U24C, A25G, U34C
- Kd: 637 nM

B22: Id_ii_S4_P3E.4_K3.3_C3.2_[C-2T]_H3.3_A3.1_F3.1_T3.2_[T9A]_[A10C] (ssRNA)
RNA: B1 RNA with A25U, U34A, A35C
- Kd: 935 nM

B23: Id_ii_S4_P3E.4_K3.3_C3.2_H3.3_A3.1_F3.1_T3.2_[A10C] (ssRNA)
RNA: B1 RNA with U24C, A25U, A35C
- Kd: 926 nM

B24: Id_ii_S4_P3E.4_K3.3_C3.2_[C-2T]_H3.3_A3.1_F3.1_T3.2 (ssRNA)
RNA: B1 RNA with A25U
- Kd: 345 nM

B25: Ib_S1_P5E.1_K5.1_C5.1_H5.1_[G2C]_A5.1_[T6C]_F5.1_T5.1 (ssRNA)
RNA: UCUCUUUCUAUCAUUAUCUCUU
- Kd: > 2300 nM

B26: Ib_S1_P5E.1_K5.1_C5.1_H5.1_[G2A]_A5.1_[T5C]_F5.1_T5.1 (ssRNA)
RNA: UCUCUUUAUACUAUUAUCUCUU
- Kd: 330 nM

B27: Ib_S1_P5E.1_K5.1_C5.1_H5.1_[G2A]_A5.1_[T5G]_F5.1_T5.1 (ssRNA)
RNA: UCUCUUUAUAGUAUUAUCUCUU
- Kd: 1360 nM

B28: Id_ii_S4_P4E.2_K4.1_C4.2_[C-2G]_[T-1C]_H4.1_A4.1_F4.1_T4.2_[G10C]_[T11C] (ssRNA)
RNA: UUUGACAACUGAUCGUUCUUUCUGCUGUAUAUUACCUUCUUUCUCGAUCAGUUGUCUUU
- Kd: 1.35 nM

B29: Id_ii_S4_P4E.2_K4.1_C4.2_[C-2T]_H4.1_A4.1_F4.1_T4.2_[G10A]_[T11C] (ssRNA)
RNA: B28 RNA with G24U, C25U, C35A
- Kd: 0.493 nM
